For assay [1], the target named is T1, BCMA-rFc fusion protein (extracellular domain of human BCMA, residues 1-54, fused to rabbit IgG Fc) (human; rabbit, UniProt Q02223 1-54).
T1 construct: range 1-54; also called recombinant BCMA-rFc; not shown: rabbit IgG heavy chain hinge region and Fc region (CH2 and CH3 domains), from vector pFUSE-rFc1 (InvivoGen); limits not
T1 sequence (looked up): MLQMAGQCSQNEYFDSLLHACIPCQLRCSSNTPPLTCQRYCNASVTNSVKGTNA
Description: bio-layer interferometry (BLITZ), BCMA-rFc immobilized by amine coupling, mAb in solution. A general note: In BLI a coated tip is dipped into the sample, and binding shifts an interference pattern.

The target of assay [2] is full-length human BCMA (TNFRSF17, CD269) on the cell surface (human) (UniProt Q02223). The assay is described as follows: cell-based or functional assay.
Assay [3] addresses BCMA (target of the LMB70 affinity measurement; not named, form not stated) (UniProt Q02223). The assay is described as follows: affinity measurement after the first labeling; method and target not stated.
In assay [4] the target is T2, full-length human BCMA (TNFRSF17, CD269) on the cell surface (human, UniProt Q02223 1-184).
T2 sequence (looked up): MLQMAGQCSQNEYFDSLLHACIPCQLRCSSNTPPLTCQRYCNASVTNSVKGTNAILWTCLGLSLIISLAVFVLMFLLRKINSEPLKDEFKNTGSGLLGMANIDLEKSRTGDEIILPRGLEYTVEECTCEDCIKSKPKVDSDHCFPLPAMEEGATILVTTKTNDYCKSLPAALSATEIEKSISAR
The assay is described as follows: cell-based or functional assay.

The Kd is the constant that tells how readily two partners part at equilibrium. By koff is commonly meant the rate constant with which the complex falls apart. A higher koff goes with a short-lived complex. A word on the kon: it is the second-order rate constant of association. Read a low kon as slow association.

A value given as a limit tells only on which side of the number the result lay.

B1: BM24 anti-BCMA monoclonal antibody (antibody, V domains shown)
VH: EVQLQQSGPELVKPGASVKMSCKASGNTLTNYVIHWMKQMPGQGLDWIGYILPYNDLTKYNEKFTGKATLTSDKSSSSAYMELNSLTSEDSAVYYCTRWDWDGFFDPWGQGTTLTVSS
VL: DIVMTQSPLSLPVSLGDQASISCRSTQSLVHSNGNTHLHWYLQRPGQSPKLLIYSVSNRFSEVPDRFSASGSGTDFTLKISRVEAEDLGVYFCSQTSHIPYTFGGGTKLEIKR
notes: Mouse hybridoma mAb, IgG1 with a kappa light chain
With B1, in assay [1], the Kd is less than 1 pM, the koff is less than 1e-07 s⁻¹ and the kon was 297000 M⁻¹ s⁻¹.

B2: LMB70: BM306-Fab-LR-GGS immunotoxin (protein, part only; not given: Fab constant domains and toxin part)
VH: EVQLQQSGPELVKPGASVKISCKTSGYTFTEYTINWVKQSHGKSLEWIGDIYPDNYNIRYNQKFKGKATLTVDKSSSTAYMELRSLSSEDSAIYYCANHDFFVFWGQGTLVTVSA
VL: DIQMTQATSSLSASLGDRVTINCRTSQDISNHLNWYQQKPDGTVKLLIYYTSRLQSGVPSRFSGSGSGTDYSLTISNLEQEDIGTYFCHQGNTLPPTFGGGTKLEIK
modifications: Fused to a Pseudomonas exotoxin domain III variant (PE-LR-GGS), which the letters do not carry.
As to B2, in assay [2], the IC50 (ng/ml), WST assay, H929 cells was 1.1 ng/mL; the IC50 (ng/ml), WST assay, JJN-3 cells amounted to 4 ng/mL; the IC50 (ng/ml), WST assay, KMS-18 cells was 65 ng/mL; the IC50 (ng/ml), WST assay, LP-1 cells worked out at 20 ng/mL. Further, in assay [2], the IC50 (ng/ml), WST assay, RPMI-8226 cells stood at 5.1 ng/mL; the IC50 (ng/ml), WST assay, U266B cells turned out to be 5 ng/mL; the IC50, WST assay, H929 cells is 1 to 1.5 ng/mL. In assay [3], this molecule returned a Bmax of 2220.

B3: BM306 anti-BCMA monoclonal antibody (antibody, V domains shown)
VH: B2 VH
VL: DIQMTQATSSLSASLGDRVTINCRTSQDISNHLNWYQQKPDGTVKLLIYYTSRLQSGVPSRFSGSGSGTDYSLTISNLEQEDIGTYFCHQGNTLPPTFGGGTKLEIKR
notes: as for B1
In assay [1], B3 gave a Kd of less than 1 pM, a koff of less than 1e-07 s⁻¹ and a kon of 415000 M⁻¹ s⁻¹. In addition, in assay [4], the “IC50 (ng/ml), WST assay, H929 cells” value is more than 1000 ng/mL; the “IC50 (ng/ml), WST assay, JJN-3 cells” value was more than 1000 ng/mL; the “IC50 (ng/ml), WST assay, RPMI-8226 cells” value was more than 1000 ng/mL; the “IC50 (ng/ml), WST assay, U266B cells” value was more than 1000 ng/mL.

For the origin of these results see patent US20180318435A1 (UNITED STATES OF AMERICA AS REPRESENTED BY THE SECRETARY …, published 2018).
